Assay results reported in the supplement of paper PMC7125110.
± gives the standard error. For some of these results: Fewer inactive variants are shown than the library holds.

B1: glmS ribozyme (parent)
chain: AUAAAAGCGCCAGAACUACAGAAAUGUAGUUGACGAGGAGGAGGUUUAUCGAAUUUUCGGCGGAUGCCUCCAAA

How the values were obtained:
Settings in all cases: with glucosamine-6-phosphate
glucosamine-6-phosphate [1] = variants of: B1; assay: kcat; higher = faster cleavage; RNA array
In short: (§1)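 kcat and KM were obtained from weighted Michaelis–Menten fits across concentrations of kobs values. Those came from one- or two-exponential decay fits to per-tile medians normalised to baseline and to non-cleaving reference variants. The variants were barcoded ribozymes transcribed in situ by E. coli RNA polymerase on sequenced MiSeq chips and tracked through a hybridised Cy3 probe at 37 °C, with 40 μM to 10 mM glucosamine-6-phosphate in HEPES/KCl/Mg(OAc)2 buffer flowed in.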

glucosamine-6-phosphate [2] = variants of: B1; assay: self-cleavage kobs at 160 uM GlcN6P; higher = faster cleavage; RNA array
In short: as §1

glucosamine-6-phosphate [3] = variants of: B1; assay: self-cleavage kobs at 640 uM GlcN6P; higher = faster cleavage; RNA array
In short: as §1

glucosamine-6-phosphate [4] = variants of: B1; assay: self-cleavage kobs at 2500 uM GlcN6P; higher = faster cleavage; RNA array
In short: as §1

glucosamine-6-phosphate [5] = variants of: B1; assay: self-cleavage kobs at 10000 uM GlcN6P; higher = faster cleavage; RNA array
In short: as §1

glucosamine-6-phosphate [6] = variants of: B1; assay: self-cleavage kobs at 40 uM GlcN6P; higher = faster cleavage; RNA array
In short: as §1

glucosamine-6-phosphate [7] = variants of: B1; assay: KM; higher = weaker cofactor use; RNA array
In short: as §1

## A14G U31A U57A C71G
glucosamine-6-phosphate [1]
  kcat: 2.93e-05 ± 8.2e-06 s⁻¹

## A14C G37A
glucosamine-6-phosphate [1]
  kcat: 0.000437 ± 0.00013 s⁻¹
glucosamine-6-phosphate [2]
  self-cleavage kobs at 160 uM GlcN6P: 6.1e-05 ± 1.7e-05 s⁻¹
glucosamine-6-phosphate [3]
  self-cleavage kobs at 640 uM GlcN6P: 8.51e-05 ± 1.4e-05 s⁻¹
glucosamine-6-phosphate [4]
  self-cleavage kobs at 2500 uM GlcN6P: 0.000201 ± 3e-05 s⁻¹
glucosamine-6-phosphate [5]
  self-cleavage kobs at 10000 uM GlcN6P: 0.000388 ± 6.8e-05 s⁻¹

## A14C G37C
glucosamine-6-phosphate [1]
  kcat: < 1e-05 s⁻¹
glucosamine-6-phosphate [6]
  self-cleavage kobs at 40 uM GlcN6P: < 1e-05 s⁻¹
glucosamine-6-phosphate [3]
  self-cleavage kobs at 640 uM GlcN6P: < 1e-05 s⁻¹
glucosamine-6-phosphate [5]
  self-cleavage kobs at 10000 uM GlcN6P: < 1e-05 s⁻¹

## G13U U31A
glucosamine-6-phosphate [1]
  kcat: 0.000483 ± 4.9e-05 s⁻¹
glucosamine-6-phosphate [7]
  KM: 3730 ± 740 µM
glucosamine-6-phosphate [3]
  self-cleavage kobs at 640 uM GlcN6P: 6.93e-05 ± 1.3e-05 s⁻¹
glucosamine-6-phosphate [4]
  self-cleavage kobs at 2500 uM GlcN6P: 0.000216 ± 3.6e-05 s⁻¹
glucosamine-6-phosphate [5]
  self-cleavage kobs at 10000 uM GlcN6P: 0.000346 ± 3.6e-05 s⁻¹

## A14C U55A
glucosamine-6-phosphate [1]
  kcat: 0.00676 ± 0.0017 s⁻¹
glucosamine-6-phosphate [7]
  KM: 2080 ± 720 µM
glucosamine-6-phosphate [6]
  self-cleavage kobs at 40 uM GlcN6P: 0.000144 ± 1.6e-05 s⁻¹
glucosamine-6-phosphate [2]
  self-cleavage kobs at 160 uM GlcN6P: 0.000546 ± 8.1e-05 s⁻¹
glucosamine-6-phosphate [3]
  self-cleavage kobs at 640 uM GlcN6P: 0.00145 ± 0.00015 s⁻¹
glucosamine-6-phosphate [4]
  self-cleavage kobs at 2500 uM GlcN6P: 0.0031 ± 0.00043 s⁻¹
glucosamine-6-phosphate [5]
  self-cleavage kobs at 10000 uM GlcN6P: 0.00734 ± 0.00098 s⁻¹

## A14C U55C
glucosamine-6-phosphate [1]
  kcat: 0.00399 ± 0.0011 s⁻¹
glucosamine-6-phosphate [7]
  KM: 1800 ± 660 µM
glucosamine-6-phosphate [6]
  self-cleavage kobs at 40 uM GlcN6P: 8.57e-05 ± 1.1e-05 s⁻¹
glucosamine-6-phosphate [2]
  self-cleavage kobs at 160 uM GlcN6P: 0.000312 ± 7.6e-05 s⁻¹
glucosamine-6-phosphate [3]
  self-cleavage kobs at 640 uM GlcN6P: 0.00122 ± 0.00015 s⁻¹
glucosamine-6-phosphate [4]
  self-cleavage kobs at 2500 uM GlcN6P: 0.00171 ± 0.00035 s⁻¹
glucosamine-6-phosphate [5]
  self-cleavage kobs at 10000 uM GlcN6P: 0.00439 ± 0.00076 s⁻¹

## A14G C58U
glucosamine-6-phosphate [1]
  kcat: 0.000263 ± 4.8e-05 s⁻¹
glucosamine-6-phosphate [6]
  self-cleavage kobs at 40 uM GlcN6P: < 1e-05 s⁻¹
glucosamine-6-phosphate [4]
  self-cleavage kobs at 2500 uM GlcN6P: 5.32e-05 ± 1.9e-05 s⁻¹
glucosamine-6-phosphate [5]
  self-cleavage kobs at 10000 uM GlcN6P: 0.000129 ± 2.9e-05 s⁻¹

## A14G C58G
glucosamine-6-phosphate [1]
  kcat: 0.00036 ± 0.00013 s⁻¹
glucosamine-6-phosphate [2]
  self-cleavage kobs at 160 uM GlcN6P: 4.95e-05 ± 1.8e-05 s⁻¹
glucosamine-6-phosphate [3]
  self-cleavage kobs at 640 uM GlcN6P: 7.22e-05 ± 2.1e-05 s⁻¹
glucosamine-6-phosphate [4]
  self-cleavage kobs at 2500 uM GlcN6P: 0.000115 ± 2.3e-05 s⁻¹
glucosamine-6-phosphate [5]
  self-cleavage kobs at 10000 uM GlcN6P: 0.000276 ± 3.5e-05 s⁻¹

## A14G C58A
glucosamine-6-phosphate [1]
  kcat: 0.00151 ± 0.00049 s⁻¹
glucosamine-6-phosphate [7]
  KM: 4260 ± 2000 µM
glucosamine-6-phosphate [6]
  self-cleavage kobs at 40 uM GlcN6P: 2.97e-05 ± 1e-05 s⁻¹
glucosamine-6-phosphate [2]
  self-cleavage kobs at 160 uM GlcN6P: 6.76e-05 ± 3.4e-05 s⁻¹
glucosamine-6-phosphate [3]
  self-cleavage kobs at 640 uM GlcN6P: 0.000214 ± 2.3e-05 s⁻¹
glucosamine-6-phosphate [4]
  self-cleavage kobs at 2500 uM GlcN6P: 0.000448 ± 6.1e-05 s⁻¹
glucosamine-6-phosphate [5]
  self-cleavage kobs at 10000 uM GlcN6P: 0.0012 ± 0.00014 s⁻¹

## G13U G59U C67U
glucosamine-6-phosphate [1]
  kcat: 1.71e-05 ± 6.1e-06 s⁻¹

## G13C C68U
glucosamine-6-phosphate [1]
  kcat: < 1e-05 s⁻¹
glucosamine-6-phosphate [6]
  self-cleavage kobs at 40 uM GlcN6P: < 1e-05 s⁻¹
glucosamine-6-phosphate [2]
  self-cleavage kobs at 160 uM GlcN6P: < 1e-05 s⁻¹
glucosamine-6-phosphate [3]
  self-cleavage kobs at 640 uM GlcN6P: < 1e-05 s⁻¹

## G13U C71A
glucosamine-6-phosphate [1]
  kcat: 0.000178 ± 1.7e-05 s⁻¹
glucosamine-6-phosphate [7]
  KM: 1130 ± 300 µM
glucosamine-6-phosphate [3]
  self-cleavage kobs at 640 uM GlcN6P: 5.95e-05 ± 1.2e-05 s⁻¹
glucosamine-6-phosphate [4]
  self-cleavage kobs at 2500 uM GlcN6P: 0.000151 ± 2.5e-05 s⁻¹
glucosamine-6-phosphate [5]
  self-cleavage kobs at 10000 uM GlcN6P: 0.000154 ± 1.8e-05 s⁻¹

## G13U C68G
glucosamine-6-phosphate [1]
  kcat: 2.36e-05 ± 6.5e-06 s⁻¹

## A14G A52C
glucosamine-6-phosphate [1]
  kcat: 4.48e-05 ± 2.1e-06 s⁻¹
glucosamine-6-phosphate [7]
  KM: 3920 ± 400 µM
glucosamine-6-phosphate [4]
  self-cleavage kobs at 2500 uM GlcN6P: 1.73e-05 ± 7.9e-06 s⁻¹
glucosamine-6-phosphate [5]
  self-cleavage kobs at 10000 uM GlcN6P: 3.23e-05 ± 1.3e-05 s⁻¹

## A14C C16G A53U
glucosamine-6-phosphate [1]
  kcat: 2.08e-05 ± 7.9e-07 s⁻¹
glucosamine-6-phosphate [7]
  KM: 1700 ± 260 µM

## G13C U54A
glucosamine-6-phosphate [1]
  kcat: 0.000202 ± 4.2e-05 s⁻¹
glucosamine-6-phosphate [7]
  KM: 8810 ± 3600 µM
glucosamine-6-phosphate [4]
  self-cleavage kobs at 2500 uM GlcN6P: 4.26e-05 ± 8.3e-06 s⁻¹
glucosamine-6-phosphate [5]
  self-cleavage kobs at 10000 uM GlcN6P: 0.000108 ± 7.3e-06 s⁻¹

## G13C U54C
glucosamine-6-phosphate [1]
  kcat: 0.000135 ± 1.9e-05 s⁻¹
glucosamine-6-phosphate [7]
  KM: 2870 ± 1000 µM
glucosamine-6-phosphate [4]
  self-cleavage kobs at 2500 uM GlcN6P: 5.89e-05 ± 1.2e-05 s⁻¹
glucosamine-6-phosphate [5]
  self-cleavage kobs at 10000 uM GlcN6P: 0.000107 ± 1.7e-05 s⁻¹

## G13A U56C
glucosamine-6-phosphate [1]
  kcat: 0.000422 ± 7.9e-06 s⁻¹
glucosamine-6-phosphate [4]
  self-cleavage kobs at 2500 uM GlcN6P: 8.37e-05 ± 2e-05 s⁻¹
glucosamine-6-phosphate [5]
  self-cleavage kobs at 10000 uM GlcN6P: 0.00021 ± 3.7e-05 s⁻¹
